In the DeepSol protein solubility set:

Test: soluble on expression in E. coli; label from the status in PepcDB or PDB records

Row | Sequence | soluble on expression in E. coli
1 | MYIPKYFKVTNAEEIWNFVQENSFGTVVTTEQGKPIATHLPLGFNKKDDHYYITGHFAYGNPQWRTFEACEDVLVMFQGPHAYISSSWYSRENVPTWNYQAVHMYGKASMLEKDELAEELTIMLEQKTPTQAFSVLWDKLSPKLLESELKGIVGFKIKVEDIQAAYKLSQNRNETDYMNVIEQLQNEENPNAKQMAELMEDKLKKQI | not soluble
2 | MYIRINNGVTECNIRLVGTAHVSDDSITEVKNAIVETDPELVAIELDKDRFVAMFQNKKNDVDLKSVIKQGKVGIYIVHSILANFQKNIGEQFGIKPGSEMKKATDLAIQYQKPISLIDRPINITLSRTVNKMTFKEKFDFVIGLLTEQNVELDEKAINEMVSNADDLILLLKDISPSIYETLVNERDKYMAKNLFEASKGKENIVAVVGAGHVPGIKNYLKKMESGEDIDLKSLM | not soluble
3 | MYKAFYGLSDNPFSIAPNPHYLFLSDRHREALAHLTYGLGETGGFVLLTGEVGTGKTTVSRCLLGQLPDNTDTAFILNPSLTELELLATLCDELKISYGENPTLKQLTDHLSRFLLANHEKGRKTVLIIDEAQHLRAEVLEQLRLLTNLETDTKKLLQVILIGQPELQLLLKRQELRQLAQRITARYHLLPLNEDEITLYVLHRLQVAGRFEPLFTRKAIKVLHKYSGGIPRLINLLCERALMAGYAQSKVPIDHHMVRQAAAEVLGEEKPSQNKFLWPSAIAAALVLTFGVSYWLFTDHAVVATVANENVTQPKQTVIAENAVQQSQTALTNTAPAITLAQTPAAPDPNLRVLQEAIKQSRQIDTAFAGLFNVWGKVPFKGLTACQSAFEQGLSCYQQQGNWMSLTRLNYPAVVYLVDDNQQDFYGAVIAVDGEQLLMQLGEQQLWVERTWFNQHFSGTFEILWQAPNLPMMEISQKSSPGQLQWLENALAHVAKRPSRRVSQFDLKLENDLKAFQSQHGLKADGIAGNQTLVRLNLYLSDQGPRLTDNGAQS | not soluble
4 | MYKLIAIDMDGTLLNDHHEVTEEVRDALHAAKAEGVKIVLCTGRPIGGVQRYLDELNLIEEGDYVIAYNGALVQNTHTNEVVSELSLGYDDLTSLYDLSLELKTPMHFFDSSNLYTPNRDISEFTVYESYVTQVPLHFRKIDEVPKDILIPKVMFIDKPENLSRVITSIPKDVREKYTMVRSAPFFYEILHSEASKGNAVRQLAQLLGIEQAEVMCIGDNGNDLTMIEWAGCGVAMANAIPEVLEAANFQTRSNNEHGVAHAIHELVLAKLEHHHHHH | soluble
5 | MYLQDRSPYMENSGSSNDRNSGKTEYQLTLIGALKKEIEIARRLDPEKLAAEIKKTGFSCQNCGKCCKRAFGDNRVVLTPQEIEKIQKYTDLSKLEVAGPLIPDISCPEEAGEGEEDRVAENSSIMPEIDEKKTSEPFRTPELLKEDIDPDGNIHAYGWMLRRKRNGDCVFLEKDTNRCRIYPVRPMLCSTYPFYIEGLKLYTCECEGLGVHISAEESRKLAGSLLSRYVSELEDTLAMYEKYEDFERTEKGHEIAKNNLEKGTCIYIVHDSRGITKIIDLEHHHHHH | soluble
6 | MYMASISLKKGQKVDLTKTNPGLSKVLVGLGWDTNRYDGQNDFDLDVSIFLVGANGKVSGAEDFVFYNNPKGANGAVEHLGDNRTGEGEGDDEAIKVDLKNVPAHIERICFTITIYDGEGRSQNFGQVSNSFVRILDEEKNAELIRYDLGEDFSIETAVVVGELYRHAGDWKFNAIGSGFQGGLASLCNNFGLDVE | not soluble
7 | MYNDRHLSLFHLLFRAKIQRAINYFFMITFSEIQLLRGGKPLLEQASATIHPGDKVGLVGKNGCGKSTLFALLKDELTIDAGSFSKPAHWELAWVAQETPALDRTALEYVIDGDREYRELERQLMDAEAADNGTKVADLHGKIEMVGGYSIRARASELLDGLGFTQEQMSWSLTQFSGGWRMRLNLAQALICRSDLLLLDEPTNHLDLDAVMWLERWLQSYPGTLILISHDRDFLDPIVNRIVHIENQTLNEYTGNYSSFETQRAQKMLQQQAIYQKQQKQMAHMQSYIDRFRYKASKARQAQSRIKALERMEKVLPAQFDNPFSFEFREPAALPNPILMMDQVAAGYGDHLILEKIRLNLVPGSRIGLLGRNGAGKSTLIKLLSGELKPQSGDCTYSQGVKIGYFAQHQLETLHPEETPLQHMMQIAPDKNELELRNYLGSFGFHGEKALEKVAPFSGGEKARLVLALIVWQKPNLLLLDEPTNHLDLDMRQALTLALQSYEGAMVIVSHDRYLLRATTDDLYLVHDHQVGPFDGDLNDYYKWLTDQQKAERKETQPTNTANSANSAAAKKEQKRREADFRKLTAPIRKKLTQLEEKLDKLNHVVSEMEAQLSDTSLYEAQNKATLTEVLAKQAAAKSELEQVELEWMAEQETLEEMERKFNG | not soluble
8 | MYNITLPVLGTRLKQIREHVGYSQAQLAEQLNCKQNAISNLELGKGGSLKLLFQVLNFYSNYVFIDLIFSEKFYLISNTEEDEAQKANYNSVIIEIIRQSEKNYENAMSNAKKELEANLQKAINLLQP | not soluble
9 | MYNNSAPYLNHSSLNTVRKKVVTVRRVLPSLPPPPPPPPSLYPPCSVFKVPYIPQRVYRSINSTLYNNQSFASSSRGFYRKQKPIPKSHPKHQEHHHHAKASVSTPVHSSSTSRNSSVAPTPQRTVSTSSSSSSAATSARVSEDESDSDSTPGEVQRRKTSVLSNDKRRRRASFSSTSIQSSPERQRDVSSSSRTSSSSSTSSMKQEETADEKSRKRKLIMSSDESSTTGSTATSVVSSRQSSLEPQQEKTDGEPPKKKSQTDFISERVSKIEGEERPLPEPVETSGPIIGDSSYLPYKIVHWEKAGIIEMNLPANSIRAHEYHPFTTEHCYFGIDDPRQPKIQIFDHSPCKSEPGSEPLKITPAPWGPIDNVAETGPLIYMDVVTAPKTVQKKQKPRKQVFEKDPYEYYEPPPTKRPAPPPRFKKTFKPRSEEEKKKIIGDCEDLPDLEDQWYLRAALNEMQSEVKSADELPWKKMLTFKEMLRSEDPLLRLNPIRSKKGLPDAFYEDEELDGVIPVAAGCSRARPYEKMTMKQKRSLVRRPDNESHPTAIFSERDETAIRHQHLASKDMRLLQRRLLTSLGDANNDFFKINQLKFRKKMIKFARSRIHGWGLYAMESIAPDEMIVEYIGQTIRSLVAEEREKAYERRGIGSSYLFRIDLHHVIDATKRGNFARFINHSCQPNCYAKVLTIEGEKRIVIYSRTIIKKGEEITYDYKFPIEDDKIDCLCGAKTCRGYLN | soluble
10 | MYNSMDEVPVSLHASIDTGDGEFDMNALISNNAHILFIVLDSLRYDIALQEQTAGNTPNLNHYGQWTKCEAAGNFTWPSHHAMFSGFMPKPIDDTVNQTMLFFPKDIGLGRKGPKNAFAFDDATWIKSLENKGYQTICIGGVSFFNNRSGMGKVFPSMFKESYWHPRFACTVKESMDNQIHYIQKIMAERAGSQPVMMYINIDTIHYPNHFYVEGAAPGDTVETHAAALRYIDARIDGLLNIFRQTGGATFVIVCSDHGTCYGEDGKYFHSFNHPIVNTVPYMHFLLSGNHLEHHHHHH | soluble
11 | MYPHIHRYKFESKNTNRHNHKIIGYTDNMIGIEAFHIHAYYGISSYNGHTHYFSGFTGLPIKTENGHIHRIEGILESASDHEHVYRNYTDENIEYISHSILKHAYV | not soluble
12 | MYQHDIGKRSAKVKNVVERGAVKKFAEAIGDPNPIYWDEETGKRSRYGRNIAPPTFPRVFDYGVIEGLKLPAKGLIHGEQHFHYERPLFVGEELYCYAEVKDYFEKQSSMGLLGFLVIANNGEDADGNLIFTSTSTIMINEAVRKAMSV | soluble
13 | MYQNFVTKHDTAIQTSRFSVTGNVIPAAPTGNIPVINGGSITAERAVVNLYANMNVSTSSDGSFIVAMKVDTSPTDPNCVISAGVNLSFAGTSYPIVGIVRFESASEQPTSIAGSEVEHYPIEMSVGSGGVCSARDCATVDIHPRTSGNNVFVGVICSSAKWTSGRVIGTIATTQVIHEYQVLQPLK | soluble
14 | MYRIIEAPNSGKYPFSHSLLIGKSCIIDTGSGEALAPLRVDCVLNTHWHEDHIAMNSIGRKVLAHPLDAEAIESYEEFRRRYGIGDSVRLFINFEFGQVDDVFEDGEQLEFEGVSVEVIHTPGHSAGHCCFVINNEAVFLGDIDLTSFGPWYGCLDCDVDDFVRSVKKMMREVERRDIEIAIPSHGRPVYGKEEIIGAMREYLKKIFERDKAIRELVRLGVDPVGKGIIYRKIPEPREIYLHFEKIMVEKHLTTSLDEFCLDLEHHHHHH | not soluble
15 | MYRNFFSLSELPFSISPDPKYLFMSERHREALTHLTYGLGEVGGFALLTGEVGTGKTTISRCLMEQLPQNTQAAFILNPTLSCQELLATLCDQLKIRYRKTGASLKTLTDKISEKLLKNHENDINTLLIIDEAQHLQPEVLEQLRLLTNLETNTKKLLQVILIGQPELQQLLQRRDLRQL | not soluble
16 | MYSDDLLLEEDSADESSLANAFSRGMQLGSTDASSYSRRFNSNASTSSSNPTTQRRYAPNQAFSQVETGSPPSNDPHARFGQHIPGSQYIPHVSQNSPSRLGQQPPQRYNHGRPNAGRTMDRNHMNAQLPPSNTNSGGQQRSPRSSSYTNGVPWGRRTNNHVPNVPSTSHGRVDYGSIA | soluble
17 | MYSDLAGKVVVITGSATGLGRAMGVRFAKEKAKVVINYRSRESEAHDVLEEIKKVGGEAIAVKGDVTVESDVVNLIQSAVKEFGTLDVMINNAGIENAVPSHEMPLEDWNKVINTNLTGAFLGSREAIKYFVEHDIKGSIINMSSVHEKIPWPLFVHYAASKGGVKLMTETLAMEYAPKGIRVNNIGPGAINTPINAEKFADPKKRADVESMIPMGYIGKPEEIAAVATWLASSEASYVTGITLFADGGMTLYPSFQAGRG | not soluble
18 | MYSPKRVKLNVTSGMRKRPETGENNDDLYPPTALARNGISPYFIGKPRRKIVVETPSDSAQQQPPFKSRSQQNGLDDELDGIIIDEDEDRTVDVSFSQKQDTRKLKSRPFLGEKSSFKLGEIPKPKEEKRREEPFTMRGFDFGSDDKVTKIRDKICDIVDPTNARRTDPNFIRQMHENTLKGIEVASNPHFKKTRAPTKNRAAIQNTLGTLYPSFTTAAGQDPQNSKFQVPLDRQSSSQSIGSLAGIPPARRAPDIPKRCSNPLIRKAMGMDTEGGGKDEKMSGLRAEPTLKHFDENIISLIESEIMSVNNEIGWADVAGLEGAKKALREIVVLPFKRPDVFTGIRAPPKGVLLFGPPGTGKTMIGRCVASQCKATFFNISASSLTSKWVGEGEKLVRALFSVARLKLPSVIFIDEIDSLLSSRSESEHESSRRIKTEFLVQLDGVNTAPDERLLVLGATNRPQELDEAARRRFQKRLYIALPEPESRTQIVQNLLVGTRHDITNHNLERIRELTDGYSGADMRQLCTEAAMGPIRDIGDDIETIDKDDIRAVTVMDFAEAARVVRPTVDDSQLDAYAAWDKKFGCLPPPSISR | not soluble
